Molecular target: T1, sperm FA-1 derived peptide (peptide 1, 35 residue peptide designed from antigen FA-1), biotinylated (biotin at the C-terminus, printed as '(SEQ ID NO: 1) - - - Biotin')
T1 peptide: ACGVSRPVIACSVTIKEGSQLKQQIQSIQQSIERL
Experiment: phage ELISA, anti-phage HRP antibody (antibody to PVIII), OD
Protocol: Infected E. coli TG-1 with panning output phages (as described above) were plated to yield individual colonies. These colonies were picked into 100 μl YTAG media in wells of a flat bottom sterile 96-well plate and grown at 30° C. shaker at 150 RPM ON. 10 μl of phage were transferred into a fresh 96-well plate containing 90 μl of YTAG+2.5 μl /ml (5×10⁸ CFU) of M13KO7 helper phage and grown at 37° C. without shaking for 30 min following shaking at 150 RPM for 30 minutes. Plates were centrifuged at 4000 RPM for 5 minutes at 14° C. and the supernatant was discarded. 200 μl /well of YTAK (with Kanamycin) was added and the plate was left to grow at 30° C. shaker at 150 RPM overnight. The bacteria plate was then centrifuged at 4000 RPM for 5 minutes at 4° C. and 100 μl of the supernatant mixed with 100 μl of PBST was used for the ELISA.
100 μl /well of antigen and control antigen were plated in ELISA plates at 4° C. overnight to coat the plates. The ELISA plates were washed once with washing buffer (300 μl/well of PBST) and blocked with 3% milk/PBS for 1 hr at room temperature (RT). […] The reaction was then stopped with […] of 1 M HCL solution plates were read plates at […]. Detection was achieved using a horseradish peroxidase (HRP)-tagged anti-phage antibody and the color resulting from the substrate-enzyme reaction was read with an automated ELISA reader.

B1: scFv J102 (scFv)
scFv: MAEVQLLESGGGLVQPGGSLRLSCAASGFTFSDHDMHWVRQAPGKGLEWVSGISWKSDSMAYRDSVKGRFTISRDNSKNTLYLQMNSLRAEDTAVYYCARDQEHFDFDYWGQGTLVTVSSGSAGGGGSGGGGSGGGGSDIVLTQPPSASGTPGQRVTISCSGSSSNLGSNTVNWYQQLPGKAPKLLIYDNNQRPSGVPDRFSGSKSGTSASLAISGLRSEDEADYYCAAWDDSLSGLVFGTGTKLTVL
notes: Human-derived scFv from a phage display library; also called Clone J102
binding result: binds
